Measurements taken from paper PMC4771823, “How the oxygen tolerance of a [NiFe]-hydrogenase depends on quaternary structure” (Journal of Biological Inorganic Chemistry, 2016).

Target: the molecule itself
Experiment: SEC; Superdex 200 HR 10/30, running buffer with 0.02 % Triton X-100, pH 7.0, 50 mM sodium phosphate, 0.10 M NaCl, 4 °C, 0.15 mL/min; column calibrated with protein standards; dimer peak run again after 5 days at 4 °C; fractions analysed by SDS-PAGE; (αβ)2 dimer to (αβ) monomers

B1: Hydrogenase-1 from E. coli, (αβ) heterodimer of large and small subunit (complex)
chain 1: MSTQYETQGYTINNAGRRLVVDPITRIEGHMRCEVNINDQNVITNAVSCGTMFRGLEIILQGRDPRDAWAFVERICGVCTGVHALASVYAIEDAIGIKVPDNANIIRNIMLATLWCHDHLVHFYQLAGMDWIDVLDALKADPRKTSELAQSLSSWPKSSPGYFFDVQNRLKKFVEGGQLGIFRNGYWGHPQYKLPPEANLMGFAHYLEALDFQREIVKIHAVFGGKNPHPNWIVGGMPCAINIDESGAVGAVNMERLNLVQSIITRTADFINNVMIPDALAIGQFNKPWSEIGTGLSDKCVLSYGAFPDIANDFGEKSLLMPGGAVINGDFNNVLPVDLVDPQQVQEFVDHAWYRYPNDQVGRHPFDGITDPWYNPGDVKGSDTNIQQLNEQERYSWIKAPRWRGNAMEVGPLARTLIAYHKGDAATVESVDRMMSALNLPLSGIQSTLGRILCRAHEAQWAAGKLQYFFDKLMTNLKNGNLATASTEKWEPATWPTECRGVGFTEAPRGALGHWAAIRDGKIDLYQCVVPTTWNASPRDPKGQIGAYEAALMNTKMAIPEQPLEILRTLHSFDPCLACSTH
chain 2: LENKPRIPVVWIHGLECTCCTESFIRSAHPLAKDVILSLISLDYDDTLMAAAGTQAEEVFEDIITQYNGKYILAVEGNPPLGEQGMFCISSGRPFIEKLKRAAAGASAIIAWGTCASWGCVQAARPNPTQATPIDKVITDKPIIKVPGCPPIPDVMSAIITYMVTFDRLPDVDRMGRPLMFYGQRIHDKCYRRAHFDAGEFVQSWDDDAARKGYCLYKMGCKGPTTYNACSSTRWNDGVSFPIQSGHGCLGCAENGFWDRGSFYSRVVDIPQMGTHSTADTVGLTALGVVAAAVGVHAVASAVDQRRRHNQQPTETEHQPGNEDKQA
notes: large (α) subunit of E. coli Hydrogenase-1, holds the [NiFe] active site; printed mass 64.6 kDa; small (β) subunit of E. coli Hydrogenase-1, holds the FeS clusters; printed mass 36.8 kDa; Purified by Ni-NTA, so one subunit should carry a His tag; Cytochrome b subunits are said to be normally lost during homogenisation; Two copies of this heterodimer form the (αβ)2 dimer; also called Hyd-1; Hyd-1 …
stoichiometry N: 2
